The results in this text go back to paper PMC3199254.

Substrate in this data set: O=P(O)(O)O
In words: cells, lysate or membranes. As to conditions: intact delta-Pst1 cells grown 24 h in Pi-limiting BG-11; room temperature; transport Km.

B1: Pst2 (Synechocystis sp. PCC 6803 substr. Kazusa) (protein)
chain: GTLNGAGASFPAPLYQRYFAEYKKATGNTVNYNSVGSGAGIRQFIGETVDFGATDAVPTSAQRQQMKRGVVMVPTAGGAVAVVYNLPGKKVQLSRIALGKIFTGELKTWNQVDSKLPNTPIRVVVRADGSGTTDIFTSHLSAISSTFRSKIGASQDPNWGFQVLKGPKNDGVAATVKQTPGAIGYVQDTFARRNEGPNLQTAKVQNKAGQYVEPSLAEANKAISGAKFDANFVAEISDPASGYPIVGLTWLLVYQNNKNANVAKDVKALVRWILTTGQNHNTQLEYTKIPPAVAQRVIAAVNKIK
As for B1, the Km was 0.13 µM.
